Measured values taken from the supplement of paper PMC10126150.
± gives the standard deviation of the averaged measurements.

System: ATP
Experiment: switch fluorescence ratio, 500 uM ATP over buffer (Cy3 cluster intensity, sum of 5 cycles each) (fold (ratio)); higher = stronger signal-on switching upon ATP binding; sequences stand for … in TCGTCGGCAGCGTCAGATGTGTATAAGAGACAGTTTTTTTTTTTTTTTTTTTTTTTTT…TC
Conditions: aptamer strand: ATP DNA aptamer (quencher-CACCTGGGGGAGTATTGCGGAGGAAGG + anchor), 100 nM annealed; ATP concentration: 500 uM
Summary of the method: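 Clusters carrying Cy3-labelled switching strands on a modified Illumina MiSeq flow-cell were annealed to 100 nM quencher-labelled ATP aptamer and imaged in selection buffer. They were imaged again after 15 min with 500 uM ATP at 22 °C, over five buffer/ATP cycles with NaOH stripping and re-annealing in between. For each cluster, the fluorescence ratio is the summed Cy3 intensity of the target cycles divided by that of the buffer cycles, averaged per switch-domain sequence. Clusters outside 100-1000 RFU were left out.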
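Further: ATP exposure 15 min at 22 °C before imaging.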

Sequence	switch fluorescence ratio
GTTTTGAGTT	1 ± 0.021
TCTTCGGGGG	1.07 ± 0.032
AGTGTTCGCT	0.9732 ± 0.0052
ATGCCGGTGT	0.996 ± 0.057
TTGGCTTGGG	1.01 ± 0.043
ACCGGGATGG	0.994 ± 0.024
CGGTACATTG	1.004 ± 0.0053
TGAGGGGGGT	0.976 ± 0.025
ATAATTGTCT	1.04 ± 0.04
AATCTCCATT	0.982 ± 0.025
ACTGGGGGTT	0.994 ± 0.029
CCATTCATTT	0.991 ± 0.02
GTTGAAATAA	1 ± 0.047
CGTGATTACT	1.17 ± 0.11
AAAATTTAGG	0.986 ± 0.03
CGGAAGGTAG	0.962 ± 0.015
CACCTGGGGG	1.13 ± 0.11
ATCTCAGTGT	0.971 ± 0.04
CCATAGGAAT	1.06 ± 0.023
TGTGTATGGT	1.01 ± 0.022
TCACAGCTGG	1.04 ± 0.016
ACTATATAAT	1.08 ± 0.014
TCATTTGGAT	1 ± 0.023
CAGGGGGGGA	1.01 ± 0.044
ATGCTGTTGC	0.9631 ± 0.0065

Sequence	switch fluorescence ratio
GTGGGGAGGG	1 ± 0.016
GGTGGAAAGG	0.982 ± 0.043
GGGATTTGCG	1 ± 0.046
ATAAAGCAGT	1.02 ± 0.048
TTTTAGATGG	1.2 ± 0.2
GGGTTCTCAG	0.995 ± 0.024
TGTTGAGGCG	0.981 ± 0.015
ATCTCGGTTG	1.019 ± 0.0085
TTCCTTTCAA	1.228 ± 0.012
TAAGGGGTTA	0.992 ± 0.029
CTCACCATGA	1.03 ± 0.035
AGGGGAGGCT	0.997 ± 0.045
GCTCACAGAA	1.02 ± 0.019
TGAAATTTTT	0.982 ± 0.029
CGGCGCTGGA	1.01 ± 0.055
AGGTCAGTTT	0.989 ± 0.017
TGATGAGGAG	0.996 ± 0.014
ATGATATGGG	0.985 ± 0.026
TGGGGAAGCG	0.988 ± 0.011
CCTATACAAC	1.11 ± 0.044
CTGTTGTCGG	0.989 ± 0.038
TAAAATTAGT	0.9938 ± 0.0073
AGCGGGGATA	1.05 ± 0.024
TAATTTCAAG	1.014 ± 0.0039
AGTAAAGCAG	1 ± 0.055

Sequence	switch fluorescence ratio
GACCATCTGT	1.02 ± 0.024
GGGTAAGAG	1.029 ± 0.0042
AGCATTTTTC	1.02 ± 0.028
TTGTTAGGGT	0.958 ± 0.011
GCTTGCCAAA	0.998 ± 0.0083
TATCCCGGCG	0.9977 ± 0.0082
GTGAGCTCAT	1.01 ± 0.04
ACTGTTTTTC	1 ± 0.013
GTGATAAGAA	1.009 ± 0.0057
TTTCAACGGT	1.009 ± 0.0075
TTATGACAGG	0.993 ± 0.022
AATTGACTTT	1.04 ± 0.011
CGGGGATTGG	1 ± 0.042
GTTAACTCTG	0.9801 ± 0.0084
TTTGTTCTT	1 ± 0.014
TTTACCCATC	1.04 ± 0.033
CAGCGCATTA	2.01 ± 0.11
CGGCGGGGAG	1 ± 0.044
TCATTGTAAC	1.06 ± 0.023
GGGCGGATTT	1.024 ± 0.008
CATTTTTAAG	1 ± 0.011
CGATAGGTTT	1 ± 0.019
AACTGGGGTG	1.03 ± 0.03
TCTATGCTTA	1.01 ± 0.038
TCGTGCAAGT	1.05 ± 0.063

Sequence	switch fluorescence ratio
GATCATTCTT	1.01 ± 0.016
ACGGCCGGGA	1.02 ± 0.026
TTTGCGAGGG	1.01 ± 0.018
TTTTTGAGGA	0.995 ± 0.017
CGGTAAAGAT	1 ± 0.058
TACGGGATGT	1.046 ± 0.0092
ATCGTATTAC	1.46 ± 0.041
TTTTACGTGG	0.9938 ± 0.0019
CGTGTTAACT	0.992 ± 0.047
AAGATGCTTA	0.9863 ± 0.0012
ATTACTGCAT	1.07 ± 0.059
TTCCGGCACT	1.09 ± 0.029
GGCTGAGCGG	0.976 ± 0.027
TTTATTATGG	0.989 ± 0.032
ACCGTTTTGT	1.02 ± 0.019
CGGGAAAAAG	1.08 ± 0.11
GTAAATATAG	0.9813 ± 3.7e-05
GGCGAAGGCC	0.973 ± 0.02
AATTTTAGCT	1.008 ± 0.0066
TCGGGGTCTT	0.9941 ± 0.0029
CGTCGCTTTT	1.022 ± 0.0052
GTTCCTTAGG	1.01 ± 0.026
AGATGAGAGT	1 ± 0.018
CAAGGTGGAT	1.051 ± 0.009
TCGCTGTTGT	1.01 ± 0.0019

Sequence	switch fluorescence ratio
TGGGTTATGT	0.992 ± 0.019
CTTAGATTCT	0.993 ± 0.012
ACTAGTCACG	1.072 ± 0.0093
AGATCGTGAA	1 ± 0.0032
AGATTATCGT	1.007 ± 0.0088
GCTTGTATTA	0.985 ± 0.016
GGGTAGGTTT	1.02 ± 0.059
TGACAATGTT	0.994 ± 0.052
TCCATGACCC	1.01 ± 0.015
TGTGGATGTC	0.977 ± 0.038
GGGACTAGTG	1 ± 0.029
GAATGGTGGG	0.988 ± 0.019
AAGTTCATCT	1 ± 0.07
GGGCCGTTGC	0.948 ± 0.029
TGGGAGTTAG	0.943 ± 0.03
TAGGGGAGCT	0.974 ± 0.067
AACGCTCGTC	1.02 ± 0.06
GTGATTAATC	1.01 ± 0.075
ACGGGTAGAC	1.0808 ± 0.001
AGAGGTTGG	0.996 ± 0.026
GATTTTAGTA	1.01 ± 0.033
GGTGATGCGC	0.978 ± 0.034
GTTATTGGGG	1.01 ± 0.024
TGTTTCTAGG	0.979 ± 0.029
TGACAGGGCT	1.01 ± 0.011

Sequence	switch fluorescence ratio
TAGCAGGGTC	1.089 ± 0.0072
TTAGTTAAAT	1.002 ± 0.0013
TTTCGGGACC	1.04 ± 0.031
GGGCGGGATG	0.984 ± 0.037
AAAGGTGGCG	1.07 ± 0.19
GTTATATGAC	0.999 ± 0.012
TTGGGTTCGG	0.987 ± 0.038
CTTGCTGTTG	1.0031 ± 0.00076
TTATTTATTC	1.03 ± 0.037
CGCCCCAGGA	1.85 ± 1.1
GTTGAAAGCG	1.03 ± 0.015
TTATGGAGCA	1.09 ± 0.09
TGTTGGAGGT	1.02 ± 0.045
TATAGCCTCG	0.976 ± 0.017
ATAATGGGTT	1.05 ± 0.058
TGATTTTGTC	0.9932 ± 0.0028
TTATTCGTTT	0.98 ± 0.03
CTTATTTTTT	1.01 ± 0.029
TCCCGCTTGT	1.17 ± 0.028
CGGTTGAGTT	1.02 ± 0.04
CTGGGATTAT	0.9755 ± 0.0074
TTTCGGTCTG	1.006 ± 0.0075
ATTATGTTCT	1.01 ± 0.013
CATTCGGGGC	1.11 ± 0.038
TGCAATTGTA	1.0195 ± 0.00099

Sequence	switch fluorescence ratio
CCAGATTTGT	1.01 ± 0.016
TGACAGGATT	0.9946 ± 0.0083
GCGTCAAGAT	1.04 ± 0.042
ATTGAGGATG	1.07 ± 0.17
GGTGACTTGG	1.01 ± 0.055
GTAGTTTTGC	1.0341 ± 0.00013
AAGTCGACAC	1.02 ± 0.032
TATAGAAAGT	0.9981 ± 0.0066
GTAGGGGGGT	1.07 ± 0.21
GGTCTGGGGA	1.024 ± 0.0073
AAGTTCGCCA	0.994 ± 0.01
CTTAGTACGG	1.01 ± 0.054
TCGGGCAACG	1 ± 0.041
GGTTTGGGGT	0.99 ± 0.032
GGGGTGTCTT	0.992 ± 0.031
GTTACAAGAC	1.21 ± 0.048
TCGGGAAAAA	0.991 ± 0.032
GCAGATTAGC	1.033 ± 0.0044
GGGGTCTGAG	0.989 ± 0.019
AATGGTTTGC	1.13 ± 0.23
GCTCGTAGTT	1.01 ± 0.046
ACTAAGTAAC	1.04 ± 0.037
GAGTGCATGG	1 ± 0.012
AGAGTAACGG	0.995 ± 0.015
CGTAAATGTG	0.9668 ± 0.0066

Sequence	switch fluorescence ratio
CTAAATATTA	1.031 ± 0.0049
TCCACCGA	1.04 ± 0.017
TCGTTAATTT	1.014 ± 0.0029
AAGGGCTGCG	0.98 ± 0.1
AAGGGGCGT	0.9961 ± 0.0036
AACAACCGGT	0.961 ± 0.031
TTTGTCGCCG	1.01 ± 0.029
ACATTTCTCA	1.04 ± 0.021
TTTGGGTATT	0.9684 ± 0.0013
ATTTTGAGAC	0.995 ± 0.026
GTGTTATCAC	0.984 ± 0.054
ACGTAAAGAC	1.17 ± 0.23
GGGGTATGCC	1.01 ± 0.027
GCGGCTAGTC	1.012 ± 0.0064
ATGATAGTAA	1.009 ± 0.0027
TTTACCATAG	1.06 ± 0.019
TTAGGTTTGG	1.05 ± 0.15
CCCGGCCATT	1.05 ± 0.013
GGTGTATTAG	1 ± 0.029
TCACGTTGTT	0.981 ± 0.036
TGAGGGAGGG	1.01 ± 0.017
TGTTTTTCTA	1 ± 0.044
ATGCTGGGAC	1.01 ± 0.024
TTTTGATCCG	1.09 ± 0.082
CGTATAAGAG	0.991 ± 0.027
